Assay results reported in the supplement of paper PMC6755084.

B1: minF1; the commonest letter at each place (parent)
chain: GAGACCGCAACTGAAAAGTTGTTATCAGAAATGGATGGGTTGAATTTCTGCACGTAGAAGCAAAAGGC

Variants of: B1
Experiment: fraction ligated after 30 min (ligated reads / total reads); higher = more ligase activity
Conditions: with F1*subA RNA substrate (template-directed ligation), 42 °C
How it was run: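 Oligo-pool templates of minimized ligase ribozyme variants were PCR-amplified, T7-transcribed and gel-purified. Ligated and unligated RNAs were gel-separated, reverse transcribed with barcoded primers, and MiSeq-sequenced; core bases were filtered at quality ≥30. Fraction ligated per variant was ligated reads over total reads.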

Compared with T32A A35T, T32A A35G is higher in fraction ligated: 0.00186 for the first, 0.0076 for the second.

First: T32A A35C
Second: T32A A44C
The fraction ligated of the first is lower: 0.00546 for the first, 0.0377 for the second.

First: T32A A44G
Second: T32A A44T
The fraction ligated of the first is lower: 0.0595 for the first, 0.163 for the second.

Going from G34A G37A to G34A G37T, the fraction ligated rises from 0.00394 to 0.00793.

Going from G34A G37C to A31G T36G, the fraction ligated rises from 0.00312 to 0.0415.

Compared with A31G T36C, A31G T36A is higher in fraction ligated: 0.0127 for the first, 0.0331 for the second.

First: A31G T32A
Second: A31G T32C
The fraction ligated of the first is higher: 0.073 for the first, 0.00833 for the second.

Going from A31G T32G to G33C A35T, the fraction ligated falls from 0.0239 to 0.0199.

First: G33C A35C
Second: G33C A35G
The fraction ligated of the first is lower: 0.0133 for the first, 0.0844 for the second.

Going from G34T G37A to G34T G37C, the fraction ligated rises from 0.00473 to 0.00496.

Compared with G34T G37T, T32C G34A is lower in fraction ligated: 0.00356 for the first, 0.00321 for the second.

Going from T32C G34T to T32C G34C, the fraction ligated falls from 0.00428 to 0.00341.

First: A31T G42C
Second: A31T G42T
The fraction ligated of the first is lower: 0.0234 for the first, 0.193 for the second.

Going from A31T G42A to T32C A43C, the fraction ligated falls from 0.495 to 0.00725.

Going from T32C A43G to T32C A43T, the fraction ligated falls from 0.0128 to 0.00881.

Going from G34A G42T to G34A G42A, the fraction ligated rises from 0.00582 to 0.0111.

Going from G34A G42C to T32G A35T, the fraction ligated rises from 0.00302 to 0.00401.

Compared with T32G A35C, T32G A35G is higher in fraction ligated: 0.00432 for the first, 0.00546 for the second.

Going from T36A to T36C, the fraction ligated falls from 0.0309 to 0.0157.

First: T36G
Second: G33C G37C
The fraction ligated of the first is higher: 0.0461 for the first, 0.00381 for the second.

Going from G33C G37A to G33C G37T, the fraction ligated rises from 0.00724 to 0.01.

Compared with G37A, G34A A44C is higher in fraction ligated: 0.00659 for the first, 0.008 for the second.

First: G34A A44T
Second: G34A A44G
The fraction ligated of the first is higher: 0.0265 for the first, 0.019 for the second.

Going from A31G G34T to A31G G34A, the fraction ligated rises from 0.00852 to 0.0934.

Compared with A31G G34C, A35C G37T is lower in fraction ligated: 0.00824 for the first, 0.00578 for the second.

Going from A35C G37A to A35C G37C, the fraction ligated rises from 0.00266 to 0.00352.

Compared with A35C, A35G is higher in fraction ligated: 0.0267 for the first, 0.271 for the second.

Compared with A35T, T32A T36A is lower in fraction ligated: 0.037 for the first, 0.00173 for the second.

Compared with T32A T36G, T32A T36C is lower in fraction ligated: 0.00433 for the first, 0.00204 for the second.

Going from T32C A44C to T32C A44T, the fraction ligated rises from 0.0116 to 0.0253.

Compared with T32C A44G, T32A A43G is lower in fraction ligated: 0.0172 for the first, 0.0134 for the second.

Going from T32A A43C to T32A A43T, the fraction ligated rises from 0.0118 to 0.0778.

Going from T36A A44T to T36A A44G, the fraction ligated falls from 0.012 to 0.00875.

Compared with T36A A44C, A35C A44G is higher in fraction ligated: 0.00684 for the first, 0.00784 for the second.

Compared with A35C A44C, A35C A44T is higher in fraction ligated: 0.00567 for the first, 0.0114 for the second.

First: G34C A44T
Second: G34C A44C
The fraction ligated of the first is higher: 0.00566 for the first, 0.00339 for the second.

Going from G34C A44G to T32C G37C, the fraction ligated rises from 0.00318 to 0.00446.

Going from T32C G37T to T32C G37A, the fraction ligated rises from 0.00216 to 0.00241.

Going from G34A to G34T, the fraction ligated falls from 0.0464 to 0.00484.

Going from G34C to G33T G42A, the fraction ligated rises from 0.00469 to 0.0913.

First: G33T G42C
Second: G33T G42T
The fraction ligated of the first is lower: 0.0103 for the first, 0.0256 for the second.

Going from A35G A43C to A35G A43T, the fraction ligated rises from 0.00434 to 0.0109.

First: A35G A43G
Second: A31T A35G
The fraction ligated of the first is lower: 0.00504 for the first, 0.339 for the second.

Compared with A31T A35T, A31T A35C is lower in fraction ligated: 0.0356 for the first, 0.0159 for the second.

Compared with A35T G42T, A35T G42A is higher in fraction ligated: 0.00285 for the first, 0.00343 for the second.

Going from A35T G42C to G33T G37A, the fraction ligated rises from 0.00256 to 0.00704.

Going from G33T G37C to G33T G37T, the fraction ligated rises from 0.00397 to 0.00922.

Going from T32G G34C to T32G G34T, the fraction ligated falls from 0.00552 to 0.00509.

Compared with T32G G34A, A35T A43G is lower in fraction ligated: 0.0029 for the first, 0.0022 for the second.

Compared with A35T A43T, A35T A43C is higher in fraction ligated: 0.00405 for the first, 0.00462 for the second.

First: G34C G37T
Second: G34C G37C
The fraction ligated of the first is higher: 0.00343 for the first, 0.00307 for the second.

Compared with G34C G37A, T32G A44T is higher in fraction ligated: 0.00257 for the first, 0.0536 for the second.

Going from T32G A44G to T32G A44C, the fraction ligated rises from 0.0444 to 0.067.

Compared with A35C T36G, A35C T36C is lower in fraction ligated: 0.00841 for the first, 0.00473 for the second.

Going from A35C T36A to G33C A43T, the fraction ligated rises from 0.00922 to 0.0544.

Compared with G33C A43C, G33C A43G is lower in fraction ligated: 0.0394 for the first, 0.0324 for the second.

Compared with T32C T36G, T32C T36A is lower in fraction ligated: 0.00825 for the first, 0.00145 for the second.

First: T32C T36C
Second: G33A G42A
The fraction ligated of the first is lower: 0.00318 for the first, 0.228 for the second.

Going from G33A G42C to G33A G42T, the fraction ligated rises from 0.0145 to 0.102.

First: A31T G33T
Second: A31T G33A
The fraction ligated of the first is lower: 0.467 for the first, 0.755 for the second.

Compared with A31T G33C, G33T A35G is lower in fraction ligated: 0.689 for the first, 0.0792 for the second.

Going from G33T A35C to G33T A35T, the fraction ligated rises from 0.0181 to 0.0191.

First: G34C G42C
Second: G34C G42A
The fraction ligated of the first is higher: 0.00271 for the first, 0.00229 for the second.

Compared with G34C G42T, G34T A35G is higher in fraction ligated: 0.00284 for the first, 0.0067 for the second.

Compared with G34T A35C, G34T A35T is higher in fraction ligated: 0.00324 for the first, 0.00561 for the second.

Going from G34C A43G to G34C A43C, the fraction ligated rises from 0.00118 to 0.00266.

First: G34C A43T
Second: T36A G37A
The fraction ligated of the first is higher: 0.0056 for the first, 0.00486 for the second.

Going from T36A G37T to T36A G37C, the fraction ligated falls from 0.0153 to 0.00357.

First: G33T G34A
Second: G33T G34C
The fraction ligated of the first is higher: 0.051 for the first, 0.00646 for the second.

Compared with G33T G34T, G33T T36C is higher in fraction ligated: 0.00514 for the first, 0.0104 for the second.

First: G33T T36G
Second: G33T T36A
The fraction ligated of the first is higher: 0.0372 for the first, 0.0253 for the second.

Compared with G34C A35T, G34C A35C is lower in fraction ligated: 0.00667 for the first, 0.00352 for the second.

Going from G34C A35G to A31T, the fraction ligated rises from 0.00539 to 0.815.

Compared with G34T A44C, G34T A44G is higher in fraction ligated: 0.00445 for the first, 0.00592 for the second.

First: G34T A44T
Second: T36A A43T
The fraction ligated of the first is higher: 0.00748 for the first, 0.00522 for the second.

Compared with T36A A43C, T36A A43G is lower in fraction ligated: 0.0049 for the first, 0.00353 for the second.

First: A31T T36C
Second: A31T T36A
The fraction ligated of the first is lower: 0.0101 for the first, 0.0236 for the second.

First: A31T T36G
Second: A31G G42A
The fraction ligated of the first is lower: 0.0351 for the first, 0.367 for the second.

Compared with A31G G42T, A31G G42C is lower in fraction ligated: 0.126 for the first, 0.0118 for the second.

First: G33A A35C
Second: G33A A35T
The fraction ligated of the first is higher: 0.026 for the first, 0.0202 for the second.

Going from G33A A35G to A35G G42C, the fraction ligated falls from 0.265 to 0.00281.

First: A35G G42T
Second: A35G G42A
The fraction ligated of the first is lower: 0.00567 for the first, 0.0121 for the second.

Compared with T32G T36C, T32G T36G is higher in fraction ligated: 0.00404 for the first, 0.00871 for the second.

Work on T32G T36A yielded a fraction ligated of 0.00414.
